Biological target: N-terminal FMN-binding domain of human methionine synthase reductase (ΔCMTRR, residues 1 to 231) (UniProt Q9UBK8)
Assay: stopped-flow absorption spectroscopy; MTR•cob(II)alamin (40 μM) rapidly mixed with ΔCMTRRhq (70 μM) in Buffer D (100 mM potassium phosphate, pH 7.4), anaerobic, 24 °C; increase in absorbance at 464 nm (loss of His-785 coordination) over 60 s, double exponential fit
Settings: other: stopped-flow absorption spectroscopy

Chain of N-terminal FMN-binding domain of human methionine synthase reductase (ΔCMTRR, residues 1 to 231) (Q9UBK8 1-231, stated change not applied): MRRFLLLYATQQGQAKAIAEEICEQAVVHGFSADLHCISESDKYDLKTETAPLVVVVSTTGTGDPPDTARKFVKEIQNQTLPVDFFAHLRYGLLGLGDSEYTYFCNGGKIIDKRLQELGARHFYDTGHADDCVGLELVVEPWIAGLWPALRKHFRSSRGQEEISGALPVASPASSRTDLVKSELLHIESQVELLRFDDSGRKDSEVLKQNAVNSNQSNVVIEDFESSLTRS
Chain of Human methionine synthase (MTR), wild-type, full-length recombinant (chain, as listed by the source): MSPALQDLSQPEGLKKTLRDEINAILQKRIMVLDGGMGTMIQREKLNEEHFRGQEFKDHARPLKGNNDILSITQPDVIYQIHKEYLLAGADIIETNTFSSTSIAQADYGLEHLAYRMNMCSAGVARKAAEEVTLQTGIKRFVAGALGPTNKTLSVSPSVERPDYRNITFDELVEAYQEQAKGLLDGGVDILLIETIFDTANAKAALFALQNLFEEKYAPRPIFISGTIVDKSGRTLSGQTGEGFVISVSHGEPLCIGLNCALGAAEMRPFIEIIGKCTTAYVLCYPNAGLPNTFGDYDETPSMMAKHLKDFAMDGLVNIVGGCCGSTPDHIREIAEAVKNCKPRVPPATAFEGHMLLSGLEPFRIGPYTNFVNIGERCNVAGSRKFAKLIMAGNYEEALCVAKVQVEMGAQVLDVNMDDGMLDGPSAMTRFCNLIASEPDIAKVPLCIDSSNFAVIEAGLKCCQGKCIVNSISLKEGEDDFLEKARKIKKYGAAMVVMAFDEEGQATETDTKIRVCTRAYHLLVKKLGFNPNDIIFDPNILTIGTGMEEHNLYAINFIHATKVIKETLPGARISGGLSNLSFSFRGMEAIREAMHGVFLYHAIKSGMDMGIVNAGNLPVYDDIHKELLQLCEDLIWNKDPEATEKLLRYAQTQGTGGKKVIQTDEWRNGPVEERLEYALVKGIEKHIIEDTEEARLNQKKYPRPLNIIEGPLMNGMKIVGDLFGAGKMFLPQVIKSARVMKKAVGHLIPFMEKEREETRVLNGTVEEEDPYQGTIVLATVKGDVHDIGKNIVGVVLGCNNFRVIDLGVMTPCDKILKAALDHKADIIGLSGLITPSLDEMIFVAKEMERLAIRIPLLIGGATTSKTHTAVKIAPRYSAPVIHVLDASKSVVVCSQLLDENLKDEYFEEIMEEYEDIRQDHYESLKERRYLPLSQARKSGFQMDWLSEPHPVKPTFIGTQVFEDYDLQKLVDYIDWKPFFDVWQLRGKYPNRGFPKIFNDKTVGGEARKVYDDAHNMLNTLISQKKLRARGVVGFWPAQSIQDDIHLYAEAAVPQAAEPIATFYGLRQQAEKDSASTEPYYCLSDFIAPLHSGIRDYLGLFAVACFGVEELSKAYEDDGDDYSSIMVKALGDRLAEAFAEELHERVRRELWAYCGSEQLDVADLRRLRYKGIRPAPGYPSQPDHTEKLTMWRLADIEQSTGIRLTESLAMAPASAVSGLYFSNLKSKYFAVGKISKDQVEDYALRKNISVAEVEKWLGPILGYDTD
Chain of P1173L variant of human methionine synthase (MTR), full-length recombinant (chain, as listed by the source P1173L): as the sequence (chain, as listed by the source) above, with P1173L counted along it

## Human methionine synthase (MTR), wild-type, full-length recombinant
  observed rate constant for complex formation (kobs): the observed rate constant for complex formation was 0.1 ± 0.01 s^−1

## P1173L variant of human methionine synthase (MTR), full-length recombinant
  observed rate constant for complex formation (kobs): the observed rate constant for complex formation was 0.1 ± 0.01 s^−1

Reference: paper PMC12272874
